Assay in all cases: Michaelis-Menten kinetics of pNA hydrolysis (Km)
What all share (settings): Co2+

Substrate in series [1]: CC[C@H](C)[C@H](N)C(=O)Nc1ccc([N+](=O)[O-])cc1
It is filed as biochemical, Thermotoga maritima.

Substrate in series [2]: CC(C)C[C@H](N)C(=O)Nc1ccc([N+](=O)[O-])cc1
It is filed as biochemical, Thermotoga maritima.

Substrate in series [3]: CSCC[C@H](N)C(=O)Nc1ccc([N+](=O)[O-])cc1
In kind it is biochemical, Thermotoga maritima.

Substrate in series [4]: CC[C@H](C)[C@H](N)C(=O)Nc1ccc([N+](=O)[O-])cc1
It is filed as biochemical, Acetivibrio thermocellus.

Substrate in series [5]: CC(C)C[C@H](N)C(=O)Nc1ccc([N+](=O)[O-])cc1
It is filed as biochemical, Acetivibrio thermocellus.

Substrate in series [6]: CSCC[C@H](N)C(=O)Nc1ccc([N+](=O)[O-])cc1
In kind it is biochemical, Acetivibrio thermocellus.

B1: TmPep1050 (Thermotoga maritima MSB8) (protein)
chain: MKELIRKLTEAFGPSGREEEVRSIILEELEGHIDGHRIDGLGNLIVWKGSGEKKVILDAHIDEIGVVVTNVDDKGFLTIEPVGGVSPYMLLGKRIRFENGTIGVVGMEGETTEERQENVRKLSFDKLFIDIGANSREEAQKMCPIGSFGVYDSGFVEVSGKYVSKAMDDRIGCAVIVEVFKRIKPAVTLYGVFSVQEEVGLVGASVAGYGVPADEAIAIDVTDSADTPKAIKRHAMRLSGGPALKVKDRASISSKRILENLIEIAEKFDIKYQMEVLTFGGTNAMGYQRTREGIPSATVSIPTRYVHSPSEMIAPDDVEATVDLLIRYLGA
notes: recombinant TmPep1050 (TM1050 ORF)
On to B1, for which, in series [1], the Km (usually the substrate concentration at which the rate is half of its maximum) worked out at 1900 ± 200 µM; the catalytic constant (kcat) (as a rule, the maximal rate divided by the concentration of active sites) came out at 0.059 ± 0.008 s⁻¹; the kcat/Km – broadly, the turnover number divided by the Michaelis constant – came to 31.1 M⁻¹ s⁻¹. In series [2], the Km was 4000 ± 300 µM, the kcat was 0.253 ± 0.019 s⁻¹ and the kcat/Km was 63.2 M⁻¹ s⁻¹. In series [3], the Michaelis constant (Km) was found to be 650 ± 50 µM, the turnover number (kcat) is 0.009 ± 0.001 s⁻¹ and the catalytic efficiency (kcat/Km) was 13.8 M⁻¹ s⁻¹.

B2: CelM (Acetivibrio thermocellus) (protein)
chain: MEEEDMFDLLKKFTGIVGVSGNEEEIREAIIEEIKECVDEIKVDTLGNLIAVKKGKGKKIMVAAHMDEIGVMVTYIDDKGFLRFSAVGGVSRYDCIGQRVKFKNGVVGAVYYEEKLEDMKNLQLSKMYIDIGARSREEALKMVNIGDVACFVGDAVLQGDTVISKALDNRSGCAVVVKAIKELKKTDNEIYFVFTVQEEVGLRGAKTAAFSIKPDIAIAVDVTMTGDTPESHPMEVKCGGGPAIKVKDRSVICHPEVRKLLEESAKRNNIPYQLEILEAGGSDPGSIHLTAGGIPSGAISIPVRYVHSPVETASMSDINNAVKLLVEAIC
notes: recombinant dodecameric CelM bearing a C-terminal hexahistidine tag
With B2, the Michaelis constant (Km) in series [4] turned out to be 2800 ± 200 µM; in series [5], 3500 ± 400 µM; in series [6], 2900 ± 150 µM. For the same protein, the results for the catalytic constant (kcat) in series [4], in series [5] and in series [6] were 0.11 ± 0.01 s⁻¹, 0.4 ± 0.03 s⁻¹ and 0.072 ± 0.006 s⁻¹, respectively. The results for the catalytic efficiency (kcat/Km) in series [4], in series [5] and in series [6] were 39.3 M⁻¹ s⁻¹, 114 M⁻¹ s⁻¹ and 24.8 M⁻¹ s⁻¹, respectively.

The values above are taken from PMC3511314, “Functional Characterization of Two M42 Aminopeptidases Erroneously Annotated as Cellulases” (PLoS ONE, 2012).
